Here are results for 1 protein from article PMC8294337 (BBA advances, 2021).

This series deals with the molecule itself. In words: SDS-PAGE.

B1: T74S KcsA (pH-gated potassium channel KcsA with the mutation T74S) (natural protein, UniProt P0A334 1-160, looked up)
chain: MPPMLSGLLARLVKLLLGRHGSALHWRAAGAATVLLVIVLLAGSYLAVLAERGAPGAQLITYPRALWWSVETASTVGYGDLYPVTLWGRLVAVVVMVAGITSFGLVTAALATWFVGREQERRGHFVRHSEKAAEEAYTRTTRALHERFDRLERMLDDNRR
As usually defined, the stoichiometry N is a count of units in the complex or per binding partner. In the case of B1, the “stoichiometry N” value was 4.
